Data on six molecules can be found in patent publication US5763177, “Systematic evolution of ligands by exponential enrichment: photoselection of nucleic acid ligands and solution selex” (NeXstar Pharmaceuticals, Inc.).

Broadly, the Kd is a measure of binding affinity in units of concentration.

Data set [1] concerns the target T1, R17 bacteriophage coat protein (Bacteriophage R17, UniProt P69170 P69170:1-129). The data set is described as follows: filter; value only in figure; TMK buffer 10 mM Mg acetate, 80 mM KCl, 100 mM Tris pH 8.5, 4 C. The following applies: tags: purified from R17 phage propagated in E. coli S26; chain copies: 2; label: 32P; hairpin. The method, then: (§1) RNA-protein binding curves for hairpin variants RNA1 (SEQ ID NO:1), RNA-2 (SEQ ID NO:2) and RNA-3 (SEQ ID NO:3) to the bacteriophage R17 coat protein are shown in FIG. 7. The association constants between coat protein and the RNA hairpin variants were determined with a nitrocellulose filter retention assay described by Carey and co-workers (Carey et al. (1983) supra). A constant, low-concentration of ^32p-labeled RNA was mixed with a series of coat protein concentrations between 0.06 nM and 1 µM in 10 mM magnesium acetate, 80 mM KCL, 80 Ag/ml BSA, and 100 mM Tris-HCl (pH 8.5 at 4° C.) (TMK buffer). These were the same solution conditions used in the crosslinking experiments. After incubation at 4° C. for 45–60 min, the mixture was filtered through a nitrocellulose filter and the amount of complex retained on the filter determined by liquid scintillation counting.

Data set [2] concerns the target T1, R17 bacteriophage coat protein. The data set is described as follows: photocrosslinking at 308 nm 5 min, 6.75 nM RNA, 120 nM protein. The following applies: tags: purified from R17 phage propagated in E. coli S26; chain copies: 2; hairpin. The method, then:
RNA-7 (SEQ ID NO:4) (FIG. 11) was prepared using methodology as reported in Example 1 using a plasmid instead of a DNA template. The photocrosslinking was performed as described in Example 3. A 4 ml reaction mixture consisting of 6.75 nM RNA and 120 nM R17 coat protein was irradiated, 2 ml at a time, at 308 nm with unfocused emission from a XeCl excimer laser. The laser produced 50 mJ/pulse and was operated at 10 Hz. The reaction proceeded to near quantitative crosslinking, 85–90%, in 5 min of irradiation. After crosslinking, 1 ml of the total reaction mixture was removed; EDTA (80 mM), SDS (0.1%), and CaCl_2 (0.1 mM) were added; the free (unbound) RNA present was purified away; and the protein digested with Proteinase K at 60° C. for 30 min. The RNA bound to residual protein was ethanol precipitated to remove salts and spun to a pellet. The pellet was washed three times with 70% ethanol to remove any residual salts. A reverse transcription reaction was employed to make a complementary DNA copy of the RNA template. A 13-base […] was annealed to the RNA and the reverse transcription reaction was performed under the standard conditions of the manufacturer, Gibco (Gaithersburg, Md.), and was stopped after 1 hr. […] No stop in the 31 nucleotide region of the gel appeared; this established that the reverse transcriptase had read through the position of the crosslink. […]

The target in data set [3] is T2, HIV-2 Rev (Human immunodeficiency virus 2, UniProt P04615 P04615:1-100).
T2 sequence: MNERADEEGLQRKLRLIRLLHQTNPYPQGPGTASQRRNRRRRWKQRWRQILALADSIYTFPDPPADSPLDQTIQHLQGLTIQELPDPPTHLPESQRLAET
The data set is described as follows: photocrosslinks (data not shown); no laser-independent crosslink (FIG. 19). The following applies: hairpin.

The target in data set [4] is T3, HIV-1 Rev (Human immunodeficiency virus 1, UniProt P04618 P04618:1-116). The data set is described as follows: monophasic; crosslinks with and without laser, also at 50 nM Rev in human nuclear extract (FIG. 20). The following applies: hairpin. The method, then: To test for the ability of trunc24 (SEQ ID NO:59) to discriminate HIV-1 Rev in a complex mixture, trunc24 and 10 µg of human fibroblast nuclear extract together with decreasing amounts of HIV-1 Rev (FIG. 20). At 50 nM Rev and a 1:100 weight ratio of Rev to nuclear extract, it was possible to see a very significant crosslinked product between trunc24 and Rev.

Data set [5] concerns the target T1, R17 bacteriophage coat protein. Description: filter; value only in figure; TMK buffer 10 mM Mg acetate, 80 mM KCl, 100 mM Tris pH 8.5, 4 C; near-quantitative crosslinking at 325 nm. The settings on record: tags: purified from R17 phage propagated in E. coli S26; chain copies: 2; label: 32P; hairpin.
Data set [6] shares this target. The data set is described as follows: filter; value only in figure; TMK buffer 10 mM Mg acetate, 80 mM KCl, 100 mM Tris pH 8.5, 4 C; crosslinks max about 40% at 308 nm. The following applies: tags: purified from R17 phage propagated in E. coli S26; chain copies: 2; label: 32P; hairpin. The method, then:
as §1
^32P-Labeled RNA sequences RNA-1 (SEQ ID NO:1) and RNA-2 (SEQ ID NO:2) (5 nM) and R17 coat protein (120 nM) were each incubated on ice in 100 mM Tris-HCl (pH 8.5 at 4° C.), 80 mM KCl, 10 mM magnesium acetate, […] of BSA for 15–25 min before irradiations. These are conditions under which the RNA is fully bound to the coat protein. […] Crosslinked RNA was separated from uncrosslinked RNA by PAGE, and the yields were determined by autoradiography.

The target of data set [7] is T3, HIV-1 Rev. Description: monophasic; laser-dependent crosslinking at 325 nm. The settings on record: hairpin. The text has this:
(§2) The sequences are aligned for maximum homology to the 6a sequence (SEQ ID NO:5). Underlines represent potential base pairing as indicted by computer RNA folding algorithms. Dashed underlines represent the 6a ligand "bubble" motif. Sequences flanked by underline represent either loop or bulge regions. Dashes are placed to maximize alignment with 6a. * denotes that two isolates were obtained. +indicates laser independent crosslinking and—denotes the lack of laser independent crosslinking to HIV-1 Rev. […] FIGS. 18 and 19 show the sequence of Trunc2 (SEQ ID NO:58) and Trunc24 (SEQ ID NO:59) and the specificity results. 500 nM protein, 20 µg tRNA, and approximately 1 nM of kinased trunc2 RNA were incubated for 10 min. at 37° C. and irradiated for 4 min at 325 nm. t2-trunc2 RNA irradiated without added protein; t2Rev1/0'-trunc2 RNA, HIV-1 Rev protein and 0 min. of irradiation; t2/Rev1/4'-trunc2 RNA, HIV-1 Rev protein, adn 4 min. of irradiation; t2/Rev1/4'/ PK-trunc2 RNA, HIV1 Rev protein, 4 min. or irradiation, and proteinase K treated as in FIG. 1; t2/Rev2/4'-trunc2 RNA, HIV-2 Rev protein, and 4 min. of irradiation; t2/Tat/ 4'-trunc2 RNA, HIV-1 Tat protein, and 4 min. of irradiation. R-free RNA; XL-crosslinked nucleoprotein complex.

Data set [8] concerns the target T2, HIV-2 Rev. The data set is described as follows: photocrosslinking 325 nm 4 min, 500 nM protein, 20 ug tRNA, 37 C. The settings on record: hairpin.
From the text: as §2

T1 sequence (P69170 whole entry, one chain of several): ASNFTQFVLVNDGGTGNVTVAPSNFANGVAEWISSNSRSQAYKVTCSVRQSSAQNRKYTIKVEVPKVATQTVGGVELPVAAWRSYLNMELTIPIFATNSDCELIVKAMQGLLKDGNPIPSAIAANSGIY
T3 sequence (P04618 whole entry, one chain of several): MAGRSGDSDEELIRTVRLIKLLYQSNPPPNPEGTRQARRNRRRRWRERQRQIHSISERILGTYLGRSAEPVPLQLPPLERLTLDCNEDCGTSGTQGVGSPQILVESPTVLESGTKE

Consider GGGAGCGAGCAAUAGCCGC (ssRNA) [RNA-3], for which the binding result in data set [1] is listed as “binds”.
On to GAACAUGAGGAUUACCCAUGAAUUCGAGCUCGCCCGGGCUCUAG (ssRNA, 5-iodouracil in place of U) [RNA-7], for which the binding result in data set [2] is “binds”.
For GGGGAUUAACAGGCACACCUGUUAACCCU (ssRNA, 5-iodouracil in place of all U) [trunc24], in data set [3], the binding result was “binds”. This molecule also had a Kd in data set [4] of 0.02 µM.
Turning to GGGAGCGAGCAAUAGCCGC (ssRNA, 5-iodouracil in place of U) [RNA-2], the binding result in data set [5] is recorded as “binds”.
As for GGGAGCGAGCAAUAGCCGC (ssRNA, 5-bromouracil in place of U) [RNA-1], the binding result in data set [6] was “binds”.
Regarding GGGUGUAUGAAACACCACGUGUGUUUCCACUC (ssRNA, 5-iodouracil in place of all U) [trunc2], in data set [7], the affinity, expressed as Kd, was 0.0005 µM. In addition, the binding result in data set [8] was “binds”.
